Measurements published in the DeepSol protein solubility set.

Assay: soluble on expression in E. coli; label from the status in PepcDB or PDB records

Sequence | soluble on expression in E. coli
MSLIKGKELLGRPVVAVSNGAQVDNVHDVVFDHQGNRVLALLVEEGGWLRAAKAVPFGRVQSIGEKAVMIATPEDVVNTGRDPVLKEALAGKTNLIGMTLLTTDGQTLGKITDVYFDERSGQVEGYEASGGLFADMTNGRTFIPAPQSIQIGKDSAIVPAGVAAAMREQAPGGIRGAFHTAGKSLGGAVQGAADSVRGAYEDTSRSVRENYEQVSANVAEAAREGQQQARAAASDLRSRVQGGAEDLREASAERQKDFVVGKVAGQDVRTDNGVLIVAKGTTIDEGQARFAEQNGALPALLAAAAGGSVREGVRDLLADPSSDAGDVVGRRVQEDVRSSVGSLIAVQGQIVTPEVAERARELGLEERLVAATQAPGLQTPPVPDRAELREQASDLRDNLADGLSNVSQNVSQGANELLGRAKSWLGERREDLEDSLDRQEQEAYQARIRDALGRPVTRAVLTRTDRVILQPGELVTHAALDEARAAGVLGLLLDSVDGGEGHHHHHH | soluble
MAHHHHHHMSRVSVLAGQKPKPKESFKFLRRDEGRLSYSAATAESPSKNAANGADGANINRERRDSKALREAIAYDMRNAKSHDPLGEVVVAVPRKAPPPTRAVSAPPPNTNASSGTEKPAAGAPPQRRQPARAANPKKPEWVDPEIPPSPLLQAPTHTVVERPADNYFETSYSDSHSGGAAALSSGIGRSVSRGSDTNGADLGRYGGLTPRSAAMGAPRYASLKYEESSAAPLSGQDRNYFRRPLYTRDPALGSDAHSPAGSRVREEDELIASLEQEIKAAQKERNHYADARQQLDREKQRFESYRYGARQQMEDERADAGDRRSREQRDAQKDLRATEERFKNVSALLVAERETNRRLSQENDSLRTQLEDLTSTMREAHRIHKAEVARMRRDIDSLTRRNAELLAMAKEQQLQCLEGASASPSTRQSSSSPFSVSLDPSAQRASSASCEGGYDEDNDAAAVGERRASRAAPLAVMDFTPRASSREAAAREKRNRQMQNRMQAEEQAMEERKRHREQYIAGRKREEQEEKTRHRVAVDAAAAATACRRSEEDDLRKAATAAEKVVEERKMSGHPARTPRMQSGALSVKRRPSVSAVHAPVAPKRHHVPTREDLIGDMEEFPTEKFCDDDVVSQTALGDNSNKKEVLYRSGKREIHYANGTVKVVLPSGHTTLRFTNGDVKCTFPSGKSTYWYDAAQTMHTQMPDGVQAFEFRSTGQTEKHLPDGSKEILYPDGIYKMVRPDGSDETFYPDGEPMEE | soluble
MSPVVSEASPERWDDETDVLVIGSGAGGLSAALFAAQAGLRVLICEKLAYVGGTTATSGGGIWVPGTKAGLAAGDTLEAARTYLKALLGDFYQEEVIDTYLATGGKVIDFLNENTEVKFDLSSWPDYRSSLPGGATRGRSLFPQPFDGKKLGRNFSLLHPPLHRLMVLGGLMLGPEEVHDFLRPFSSPRALMRVLRKLLRYGMDRIRYARGTDLRSGNALAARLLYSVDKLGCRILTQADLESLAIDHDRVIGATVVVGGVPKRIRASKAVLLATGGFAHNQEMLRRYGPATPHRFSLCNPACTGAGIQAALDAGASVDRELSSVGFWTPASASREKNGADTPVIYSYLDRGRPGVIAVNEQGERFVNEANSYHDIVTAIFANGGADGKPFYFITDREFVRRHGLGLIRPWPWNRSLRPWIRRGYITVASTLDKLGPKIGIDPGALAAAVQRHNQSARTGQDPDFHKGASAYNRMFGHNMIWPNPNLAPIETPPFVALRIHPATIGTAMGLKTSASGQALNAAGQPISGLYACGNDQASPFRGFYPGGGSTLGPAIVGAYLAVQSLSKQLEHHHHHH | not soluble
MDLDKLVHQPTRLELFAYLYRHGESSFGDLTDELDLTEGNLSSHLQRMEDADAVEVRKEFVDKRPHTTAVLTEDGEAMFEDHVQTLQGLIDGLELEHHHHHH | not soluble
MAHHHHHHMPPFFEARAEKLMLAAQEECRLLAAQLEKSRAARAASTCGPQGKIRAAPATAPVAATSPPSPRRTYSAATATVAVKGLSIGSSTSTSPDRAGSPSAAPPSASPARVVIPTAATHKEGTLLHLVRGSGLFGSGSRSFVPHYIAVSGSAGISWYASEAEYRQNPSRPLGHADFWIETFNSRGSRFKKAAVCWPLILPDDCPEAKDANKTYFAVDYYTPDEAREQVVLAASSPAERDEWVQLLTKYIDLYLAPRAESEELQHIPRGAEVPLHRSGVIEGEAPGGNIL | soluble
MGSDKIHHHHHHMNINSETKYCQTCGIPLDIDYTNLKADQNEEYCDYCLKNGVKLYDFSMDYLIYLWGLFPEEYYKEVGIRHTSSELREIMSRRLPEIKRWKQKINTAHIQYELVIRVQEYINCHLFDDLDSEKLSQIVCISKYHFRRLFKAVCGDSLGNYIQRLRLEYIAFKLISTNVSVSEILSQINYQNKHTLSRAFKNYFNCSIPEFRKRHSNACSEGKNPIQIEPSIERVPHTRIAYLKLERTHHVSHSFSVLWKQVLQFSESYGLLSKGCKYVSLTLDYPFITLEEQSRFMVGVTLPQSFKIPKGFGVYEVPAGEYAIFRFKGLYHELNRVYRYIYLDWLPANDYSLREPFTFETYINTPEKTPVSELITDIYIPVKKKEI | not soluble
MNNFTYEKLHNNLQYLKLNTIEELLDNCLEIAARDSKTTMEVLDYLFEQEKKHREAAAIERRMKSAGFPVKKMLEEFDFEFQSSINKKVIEDLATLRFVHNAENIVLLGPPGVGKSHLAIALGIEAVKAGISVHFTNTGNLIERLKIANREGILEKKIRDLMKFKVLIIDEIGYLPFDDEGAHCLFQLISRRYEKSSTILTSNKSYGEWGEIFKDHVIAAALLDRILHHCTTINIKGESYRLKERKKQGIKTGLIRHNSTEILENLEHHHHHH | soluble
MGHHHHHHSHMPARTDSVIIADQTPTPTRFLKNCEEVGLFNELASSFEHEFKKAADEDEKKARSRTVAKKLVAAAGPLDMSLPSTPDIKIKEEEPVEVDSSPPDSPASSPCSPPLKEKEVTPKPVLISTPTPTIVRPGSLPLHLGYDPLHPTLPSPTSVITQAPPSNRQMGSPTGSLPLVMHLANGQTMPVLPGPPVQMPSVISLARPVSMVPNIPGIPGPPVNSSGSISPSGHPIPSEAKMRLKATLTHQVSSINGGCGMVVGTASTMVTARPEQSQILIQHPDAPSPAQPQVSPAQPTPSTGGRRRRTVDEDPDERRQRFLERNRAAASRCRQKRKLWVSSLEKKAEELTSQNIQLSNEVTLLRNEVAQLKQLLLAHKDCPVTALQKKTQGYLESPKESSEPTGSPAPVIQHSSATAPSNGLSVRSAAEAVATSVLTQMA | soluble
MYFPAAIDTSLAAEDLGIWAPIDHQRIISLLTIGLGVLYHREKAISLEPLPETMLDEGKASPVPDISLRDNSASQTPIIIEVCHTNGLKGDLRKVIQLIDDGDYGIQEGFIYDYRAGTWVLYRSGGDGLTQSTSFSDILQLDLNQFL | not soluble
MGSDKIHHHHHHMAMDRVTKQLTVSKLLSLANFIPKDSQKILFYSTPDVSDNALALFKYISEKTDDYELAWLLNNPNSPSVKTLKEKYPEVKTIYLYSLEGLKELLRSKFVVLTDVLPLTPHRGQKIIQLWHGLPGKKTGYEHPLNVKDLYLYMDKWTTDFVTTSELVVGAFVRQFMINPRKFRILGQPRNDGLFDNLKDAKNILSSILGRDVEDYDHLILYAPTYRYTSYMKDFQASVNVVKTLFHHKFLEFLKEENILLVIKPHKLVADVIKPEIKENSNVILLTDEHLQSRLITINDVMGAFDILITDYSSIFEDYILLERPILFYLPDREALERKSGFLLPYEFFAPGRKPETLEGLIHALKIYMEDPEVDSEWRKTVKNLLYEVGKDNKSSERIYNLIIKQK | not soluble
MVDIEIWLRLMSISSLYGDDMVRIAHWLAKQSHIDAVVLQQTGLTLRQAQRFLSFPRKSIESSLCWLEQPNHHLIPADSEFYPPQLQATTDYPGALFVEGELHALHSFQLAVVGSRAHSWYGERWGRLFCETLATCGVTITSGLARGIDGVVHKAALQVNGVSIAVLGNGLNTIHPRRHARLAASLFEQGGALVSEFPLDVPPLAYNFPRRNRIISGLSKGVLVVEAALRSGSLVTARCALEQGREVFALPGPIGNPGSEGPHWLIKQGAILVTEPEEILENLQFGLHWLPDAPENSFYSPDQQDVALPFPELLANVGDEVTPVDVVAERAGQPVPEVVTQLLELELAGWIAAVPGGYVRLRRACHVRRTNVFV | not soluble
MLDLFADEAPWQEPLAPGAVVLRRFAFRAAQSLLDDIGFVASQSPFRQMVTPGGYTMSVAMTNCGALGWTTDRHGYCYAVRDPLTDKPWPALPLSFASVCRQAAIAAGYASFQPDACLINRYAPGAKLSLHQDKDEPDLRAPIVSVSLGVPAVFQFGGLRRSDPIQRILLEHGDIVVWGGESRLFYHGIQPLKAGFHPMTGEFRYNLTFRQAAEKELEHHHHHH | soluble
MGSDKIHHHHHHMNKSIFDDINSTNIGSYWTTLSQQMDPYLWETLMPNSKQIASDFVFYRGMSNAPKPLAPSAFGVPAIMRKRSGFDRVSDHTRYFKEGYYIDEAIRQQLLRVGANATQAEKDMINNHIFQDSMELLKGAQLTREIMRNQIIQTGKINVIGNGQTITADYQMKASHRVVNDKAWGTTGSTPFEDIQKARDLVGDDSDQVITRAVMNKATFNALMSDTNVKSTMLYDNGKLANVTIPQSELLNFLVTNYGLTVQIYDKRYMDIDGTKKKWIPDGRVIFLPDGELGKTIMSTTPEEADLAAASDVDMTLVDNGVAITTMLDSDPVNKKINVSQEVMPSFPQIDGIYILDAFAKTGTDPLATTPTAPASTTTTTDPKA | not soluble
IGDWGYSVSANLTTIKNKVKSLVQDGYSIIAGDKQQSYTMAGYPIGFFYGYKVAGVYQSQADIDASPENTLATVTPGDLKFADVNRDGKITPEDRTMIGNPTPDFTYGLSLGVNYKNWSLGIDMMGQHGNEIFRTWDNYNFAQFNYLSQRMDRWHGEGTSNSQPLLNSKHSINNLNSEYYIEDGSFFRIRNVQLAYSFDKALLAKIRLQALKVYVNIQNLKTWKHNTGYTPELGGSATTFGVDDGSYPVPAVYTFGINLTF | not soluble
MKFSVLTLFPQLVWPYFEDSILKRALEKNLFELEVLNLRDFSANKYQKADHTLIGGGAGQILDPEMVENALHSVKNPKHTIFLSAVGKPFKQTDAMRLAQKKHVVLVCGRYEGFDERSIELGADEVFCIGDFILTGGELGALCLIDSIARHIQGVLGNAQSLENESFENHYLEAPNFANAVFKSKEINKIPAPLEYSKGNHAKIKQLKLDLSKLRTKFYRLDLFKQHKSLEHHHHHH | not soluble
MSRLEIYSPEGLRLDGRRWNELRRFESSINTHPHAADGSSYMEQGNNKIITLVKGPKEPRLKSQMDTSKALLNVSVNINKFSKFERSKSSHKNERRVLEIQTSLVRMFEKNVMLNIYPRTVIDIEIHVLEQDGGIMGSLINGITLALIDAGISMFDYISGISVGLYDTTPLLDTNSLEENAMSTVTLGVVGKSEKLSLLLVEDKIPLDRLENVLAIGIAGAHRVRDLMDEELRKHAQKRVSNASAR | soluble
MSNVMDLNLIQTFLVVAEFQSYTKAAEQLGLTQPAVSAAIKRLEQVVDKQLFVKKGRGITLTSAAYQLLPQFEQAVSIIDNAIMEKKHFEVCCSEILLHIMSPIKNAIFYESPPEKYILFELLRQQKVDLVIDTVVTKDAAFVMEEAYEEKAVIICREQHPRIQGTLSKEQFYDETHCLFSGKWNNMSGFEQLAQETILER | not soluble
MGSDKIHHHHHHMNITIVGAGATGGYFGARLAASGLNVTFLVREKRAAQLREKGLVIKSVVEDLTLEAPQIAINAEDIPACDLVLLGLKNYQLAASLPQLKVLVNRGAKILPFLNGVEHFEILAKELGQENVLGGVCKIISTLDSEGTIHHTSKVHQIIFGELEPSGKEFCLRLEQAMAKANFKVKYTENILNEIWSKYAFITVFSGVTSAGDLTTDQICAHEATVKVYRRSLEEMKSLADAYGAALSEDFVEQNVEGLPKYAKGSTSSMHQDMRKGLLLEVESLQGAAIRLAGRKNMELPTIETLYGLIKPYEMGSIG | not soluble
